T1: p63γ (Homo sapiens, UniProt Q9H3D4)
T1 construct: expressed in transfected cells; host or cells: Saos-2
T1 sequence (Q9H3D4 1-487 isoform Q9H3D4-5): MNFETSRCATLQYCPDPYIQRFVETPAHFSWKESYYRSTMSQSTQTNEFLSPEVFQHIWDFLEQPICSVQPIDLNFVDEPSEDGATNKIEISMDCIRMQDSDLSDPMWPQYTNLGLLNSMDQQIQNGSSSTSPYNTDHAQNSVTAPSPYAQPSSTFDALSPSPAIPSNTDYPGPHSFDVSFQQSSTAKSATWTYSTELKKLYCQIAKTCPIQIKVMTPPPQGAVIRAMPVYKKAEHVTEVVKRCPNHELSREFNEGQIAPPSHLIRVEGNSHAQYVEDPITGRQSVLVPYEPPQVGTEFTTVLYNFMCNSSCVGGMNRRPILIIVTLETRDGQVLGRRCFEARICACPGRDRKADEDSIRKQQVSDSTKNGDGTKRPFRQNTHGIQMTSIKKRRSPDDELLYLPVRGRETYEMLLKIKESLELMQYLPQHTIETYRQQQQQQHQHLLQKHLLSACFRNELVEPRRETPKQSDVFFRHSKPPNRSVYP

T2: p73α (Homo sapiens, UniProt O15350)
T2 construct: expressed in transfected cells; host or cells: H1299 and Saos-2; part of the results from in vitro translation
T2 sequence (O15350 1-636): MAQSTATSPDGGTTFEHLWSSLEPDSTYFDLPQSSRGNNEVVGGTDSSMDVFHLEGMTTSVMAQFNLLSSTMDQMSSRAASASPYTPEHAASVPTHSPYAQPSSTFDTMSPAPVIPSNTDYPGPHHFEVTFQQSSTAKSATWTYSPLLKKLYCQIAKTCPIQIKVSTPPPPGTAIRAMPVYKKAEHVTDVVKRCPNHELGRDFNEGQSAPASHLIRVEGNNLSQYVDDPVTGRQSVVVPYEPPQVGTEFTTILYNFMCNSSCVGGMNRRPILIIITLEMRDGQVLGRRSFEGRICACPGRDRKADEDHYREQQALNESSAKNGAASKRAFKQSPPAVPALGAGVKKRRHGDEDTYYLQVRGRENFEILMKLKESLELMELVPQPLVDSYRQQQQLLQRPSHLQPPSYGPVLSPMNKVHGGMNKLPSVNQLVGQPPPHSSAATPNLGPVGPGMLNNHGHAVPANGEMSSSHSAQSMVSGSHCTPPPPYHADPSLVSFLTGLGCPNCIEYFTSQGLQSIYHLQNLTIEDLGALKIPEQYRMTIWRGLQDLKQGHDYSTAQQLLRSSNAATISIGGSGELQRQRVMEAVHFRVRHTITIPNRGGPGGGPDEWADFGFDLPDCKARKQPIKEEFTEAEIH


How the values were obtained:
[1] = target: T3, p53 (Homo sapiens, UniProt P04637); assay: Transient luciferase reporter assay of p53 transactivation function in Saos-2 cells; type: cell-based; settings: for stimulation of the promoter activity of mdm2 and cyclin G: co-expression with p53; for promoter activity of PIG-3: transient transfection reporter assay
T3 construct: expressed in transfected cells
Procedure: (§1) The amount of luciferase expression was determined as previously described in Samuels-Lev et al. (Mol. Cell 8:781-94, 2001, herein incorporated by reference).
(§2) The amount of transactivation function was determined as described in Example 4.
(§3) To determine the amount of protein expression, Saos-2 cells (5×10^5) were plated 24 hours prior to transfection in 6 cm dishes. […] To determine the amount of gene activation, after transfection, the cells were lysed in Reporter Lysis Buffer 16-24 hours post-wash and assayed using the Luciferase Assay kit (Promega, Wis.). The fold activation of a particular reporter was determined by the activity of the transfected plasmid above the activity of vector alone.
(§4) The expression level of transfected proteins was detected using 40 μg of the respective lysates using the antibodies V5, DX.5410, DO1, 4A4 and p73. […] Results were derived from at least three independent experiments.

[2] = target: T4, p53 (Homo sapiens, UniProt P04637, R181C); assay: as above; type: cell-based; settings: Bax-luc, FIG. 6B
T4 construct: expressed in transfected cells
Procedure: as §1, §2, §3, §4

[3] = target: T1, p63γ; assay: Transient luciferase reporter assay of p63γ transactivation function; type: cell-based; settings: FIG. 14C
Procedure: as §3, §4

[4] = target: T2, p73α; assay: Transient luciferase reporter assay of p73α transactivation function; type: cell-based; settings: for stimulation of the transactivation function of p73α on the Bax promoter: Example 16, FIGS. 14A and 14B; for transactivation function of p73α on the mdm2 promoter: FIG. 14C
Procedure: as §3, §4

[5] = target: T5, E2F1 (Homo sapiens, UniProt Q01094); assay: Transient reporter assay of E2F1 transactivation function; type: cell-based; settings: co-expression with E2F1, FIGS. 2C and 2D
T5 construct: expressed in transfected cells
T5 sequence (Q01094 whole entry, species assumed): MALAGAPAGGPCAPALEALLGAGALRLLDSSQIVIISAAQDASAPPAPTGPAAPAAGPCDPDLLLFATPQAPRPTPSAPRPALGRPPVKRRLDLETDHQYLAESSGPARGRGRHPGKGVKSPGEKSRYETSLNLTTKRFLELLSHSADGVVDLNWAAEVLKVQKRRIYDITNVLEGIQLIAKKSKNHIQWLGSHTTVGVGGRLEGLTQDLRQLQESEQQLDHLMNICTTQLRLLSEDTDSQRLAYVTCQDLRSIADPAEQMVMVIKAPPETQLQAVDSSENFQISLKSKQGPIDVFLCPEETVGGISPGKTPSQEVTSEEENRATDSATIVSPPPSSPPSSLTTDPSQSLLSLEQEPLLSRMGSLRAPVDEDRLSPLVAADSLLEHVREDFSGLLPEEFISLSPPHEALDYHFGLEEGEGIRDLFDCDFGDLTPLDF

[6] = target: T1, p63γ; assay: Co-immunoprecipitation with p63γ (in vitro translated; transfected H1299 and Saos-2 cells); type: binding; settings: for interaction with p63γ in vitro: in vitro translated proteins, FIGS. 12B and 12C; for interaction with p63γ in vivo: transfected cells, FIGS. 13A and 13C
Procedure: (§5) V5-tagged ASPP1 and ASPP2 proteins were in vitro translated with cold methionine using the TNT T7 Quick coupled Transcription/Translation System (Promega). Cell lysates were incubated at 30° C. for 1 hour and then immunoprecipitated with anti-V5 antibody on protein G agarose beads.
(§6) The agarose beads were added to the binding reactions and incubated on a rotating wheel at 4° C. for 16 hours. The beads were then washed with PBS. The bound proteins were released in SDS gel sample buffer and analysed by 10% SDS-polyacrylamide gel electrophoresis (PAGE). The gels were wet transferred on to Protran nitrocellulose membrane and the resulting blots were first incubated with primary antibody and subsequently with the appropriate secondary HRP conjugated antibody (Dako). The blot was exposed to hyperfilm following the use of ECL substrate solution (Amersham Life Science).
(§7) Cells were transfected with 1 μg of p63γ or p73α in the presence or absence of 10 μg of ASPP1 or ASPP2. Cell lysate (1 mg) was immunoprecipitated with an antiASPP1 or ASPP2 antibody (see Example 2 and 7). The immunoprecipitates were separated on an SDS gel and the presence of p63 or p73 on the immunoblots detected by mouse monoclonal antibodies 4A4 (Santa Cruz) and ER-15 (Neomarker) to p63 or p73, respectively. The presence of ASPP1 or ASPP2 was detected with antibodies YX.7 and DX5410, respectively.
(§8) In some methods, larger amounts of cell lysate (2 mg) were immunoprecipitated with rabbit antibodies ASPP1.88 or BP77 to ASPP1 and ASPP2, respectively. The expression of ASPP1, ASPP2, p63γ and p73α was detected as described above.

[7] = target: T2, p73α; assay: Co-immunoprecipitation with p73α (in vitro translated; transfected H1299 and Saos-2 cells); type: binding; settings: for interaction with p73α in vitro: in vitro translated proteins, FIGS. 12B and 12C; for interaction with p73α in vivo: transfected cells, FIGS. 13B and 13D
Procedure: as §5, §6, §7, §8

| Molecule | transactivation function of p53 on the mdm2 promoter ([1]; FIG. 8C, Ikb even in the presence of ASPP2) | stimulation of the promoter activity of mdm2 and cyclin G [1] | stimulation of the transactivation function of p53 on the Bax promoter ([1]; co-expression with p53, FIG. 8B) | promoter activity of PIG-3 [1] | stimulation of the transactivation function of p53 ([1]; versions of ASPP2 co-expressed with p53, FIG. 3) | transactivation function of mutant p53 181C on the Bax gene promoter [2] | transactivation function of p63γ on the mdm2 promoter [3] | stimulation of the transactivation function of p73α on the Bax promoter [4] | transactivation function of p73α on the mdm2 promoter [4] | transactivation function of E2F1 on cyclin A, b-myb and synthetic promoter 3×wt [5] | interaction with p63γ in vitro [6] | interaction with p63γ in vivo [6] | interaction with p73α in vitro [7] | interaction with p73α in vivo [7] | stimulation of the transactivation function of p53 on the Bax promoter ([1]; Example 16, FIGS. 14A and 14B) |
| --- | --- | --- | --- | --- | --- | --- | --- | --- | --- | --- | --- | --- | --- | --- | --- |
| ASPP2: full length 1128 amino acid protein, SEQ ID NO: 4 (protein, listed as Homo sapiens) MMPMFLTVYLSNNEQHFTEVPVTPETICRDVVDLCKEPGESDCHLAEVWCGSERPVADNERMFDVLQRFGSQRNEVRFFLRHERPPGRDIVSGPRSQDPSLKRNGVKVPGEYRRKENGVNSPRMDLTLAELQEMASRQQQQIEAQQQLLATKEQRLKFLKQQDQRQQQQVAEQEKLKRLKEIAENQEAKLKKVRALKGHVEQKRLSNGKLVEEIEQMNNLFQQKQRELVLAVSKVEELTRQLEMLKNGRIDSHHDNQSAVAELDRLYKELQLRNKLNQEQNAKLQQQRECLNKRNSEVAVMDKRVNELRDRLWKKKAALQQKENLPVSSDGNLPQQAASAPSRVAAVGPYIQSSTMPRMPSRPELLVKPALPDGSLVIQASEGPMKIQTLPNMRSGAASQTKGSKIHPVGPDWSPSNADLFPSQGSASVPQSTGNALDQVDDGEVPLREKEKKVRPFSMFDAVDQSNAPPSFGTLRKNQSSEDILRDAQVANKNVAKVPPPVPTKPKQINLPYFGQTNQPPSDIKPDGSSQQLSTVVPSMGTKPKPAGQQPRVLLSPSIPSVGQDQTLSPGSKQESPPAAAVRPFTPQPSKDTLLPPFRKPQTVAASSIYSMYTQQQAPGKNFQQAVQSALTKTHTRGPHFSSVYGKPVIAAAQNQQQHPENIYSNSQGKPGSPEPETEPVSSVQENHENERIPRPLSPTKLLPFLSNPYRNQSDADLEALRKKLSNAPRPLKKRSSITEPEGPNGPNIQKLLYQRTTIAAMETISVPSYPSKSASVTASSESPVEIQNPYLHVEPEKEVVSLVPESLSPEDVGNASTENSDMPAPSPGLDYEPEGVPDNSPNLQNNPEEPNPEAPHVLDVYLEEYPPYPPPPYPSGEPEGPGEDSVSMRPPEITGQVSLPPGKRTNLRKTGSERIAHGMRVKFNPLALLLDSSLEGEFDLVQRIIYEVDDPSLPNDEGITALHNAVCAGHTEIVKFLVQFGVNVNAADSDGWTPLHCAASCNNVQVCKFLVESGAAVFAMTYSDMQTAADKCEEMEEGYTQCSQFLYGVQEKMGIMNKGVIYALWDYEPQNDDELPMKEGDCMTIIHREDEDEIEWWWARLNDKEGYVPRNLLGLYPRIKPRQRSLA | very little effect | very modest stimulation | about 8 fold | specifically stimulated | about 7 fold | unable to stimulate | failed to stimulate | 6 fold | failed to stimulate | failed to stimulate | co-immunoprecipitated | co-immunoprecipitated transfected p63γ and p73α | co-immunoprecipitated | co-immunoprecipitated transfected p63γ and p73α | – |
| ASPP1: Apoptosis Stimulating Protein 1, protein of SEQ ID NO: 2, expressed from a transfected plasmid (protein, listed as Homo sapiens) MMPMILTVFLSNNEQILTEVPITPETTCRDVVEFCKEPGEGSCHLAEVWRGNERPIPFDHMMYEHLQIWGPRREEVKFFLRHEDSPTENSEQGGRQTQEQRTQRNVINVPGDKRTEYGVGNPRVELTLSELQDMAARQQQQIENQQQMLVAKEQRLHFLKQQERRQQQSISENEKLQKLKERVEAQENKLKKIRAMRGQVDYSKIMNGNLSAEIERFSAMFQEKKQEVQTAILRVDQLSQQLEDLKKGKLNGFQSYNGKLTGPAAVELKRLYQELQIRNQLNQEQNSKLQQQKELLNKRNMEVAMMDKRISELRERLYGKKIQLNRVNGTSSPQSPLSTSGRVAAVGPYIQVPSAGSFPVLGDPIKPQSLSIASNAAHGRSKSANDGNWPTLKQNSSSSVKPVQVAGADWKDPSVEGSVKQGTVSSQPVPFSALGPTEKPGIEIGKVPPPIPGVGKQLPPSYGTYPSPTPLGPGSTSSLERRKEGSLPRPSAGLPSRQRPTLLPATGSTPQPGSSQQIQQRISVPPSPTYPPAGPPAFPAGDSKPELPLTVAIRPFLADKGSRPQSPRKGPQTVNSSSIYSMYLQQATPPKNYQPAAHSALNKSVKAVYGKPVLPSGSTSPSPLPFLHGSLSTGTPQPQPPSESTEKEPEQDGPAAPADGSTVESLPRPLSPTKLTPIVHSPLRYQSDADLEALRRKLANAPRPLKKRSSITEPEGPGGPNIQKLLYQRFNTLAGGMEGTPFYQPSPSQDFMGTLADVDNGNTNANGNLEELPPAQPTAPLPAEPAPSSDANDNELPSPEPEELICPQTTHQTAEPAEDNNNNVATVPTTEQIPSPVAEAPSPGEEQVPPAPLPPASHPPATSTNKRTNLKKPNSERTGHGLRVRFNPLALLLDASLEGEFDLVQRIIYEVEDPSKPNDEGITPLHNAVCAGHHHIVKFLLDFGVNVNAADSDGWTPLHCAASCNSVHLCKQLVESGAAIFASTISDIETAADKCEEMEEGYIQCSQFLYGVQEKLGVMNKGVAYALWDYEAQNSDELSFHEGDALTILRRKDESETEWWWARLGDREGYVPKNLLGLYPRIKPRQRTLA | – | very modest stimulation | – | specifically stimulated | – | unable to stimulate | failed to stimulate | 3 fold | failed to stimulate | failed to stimulate | co-immunoprecipitated | co-immunoprecipitated transfected p63γ and p73α | co-immunoprecipitated | co-immunoprecipitated transfected p63γ and p73α | around 6 fold |

— patent publication US20040228866A1, “Suppressor genes” (Ludwig Institute for Cancer Research, priority 2000, published 2004)
